Data as given in patent publication US20080081047A1 (published 2008).

B1: F26G18 (antibody, V domains shown)
VH: LVQLEESGTVLPRPGASVKMSCKASGYTFTSYWMHWVKQRPGQGLEWIGAIYPGNSDTNYNQKFKGRATLTAVTSTSTASMELSSLTNEDSAVYYCTRDGYGSLYYYAMDFWGQGTSVTVSS
VL: ELVMTQSPSSLSASLGDRVTISCRASQDISNYLNWYQQKPDGTVKLLIYYTSRLHAGVPSRFSGSGSGTDYSLTISNLEQEDIATYFCQQGYTLPYTFGGGTKLEIKR
B2: F26G6 (antibody, V domains shown)
VH: QVQLQQPGAELVKPGASVKVSCKASGYTFTNYWIHWVKQRPGQGLEWIGEINPGNGRTNYNGNFMNKATLTVDKSSNTAYMQLSSLTSEDSAVYHCARLDYWGQGTTLTVSS
VL: ELVMTQSPASLSVATGKKVTIRCISSTDIDDDMNWYQQKAGKPPKLLISEGNIFSPGVPSRFSSSGNGTDFVFTVENTLSEDVADNYCLQSDNMPFTFGSGTKLGIKR
B3: F26G8 (antibody, V domains shown)
VH: VQLLESGAELVKPGASVKVSCKASGYTFTSYWIHWVKQRPGQGLEWIGEINPSNGRTNYNGNFESKATLTVDKSSNTAYMHLSSLTYEDSAVYHCTRLDYWGQGTTLTVSS
VL: ELVMTQSPASLSVITGKKVTIRCISNTDIDDDLNWSQLKAGEPPKLLISEGNIFSPGVPSRFSSSGNGTDFVFTIENTLSEDVANNYCFQSDNMPFTFGSGTKLEIKR
B4: F26G19 (antibody, V domains shown)
VH: EVQLEESGTVLARPGASVKMSCKASGYTFTTYRMHWIKQRPGQGLEWIGAIYPGNSDTTYNQKFKDKAKLTAVTSTSSAYMELSSLTNEDSAVYFCTREGIPQLLRTLDYWGQGTSVTVSS
VL: DILMTQSPSSLSASLGERVSLTCRASQEISGYLSWLQEKPDGTIKRLIYAASTLDSGVPKRFSGSRSGSDYSLTISSLESEDFADYYCLQYVSYPWTFGGGTKLEIKR

Legend:
[1] = target: T1, SARS-HCoV spike protein (SARS-coronavirus (Tor-3 strain), UniProt P59594 14-1255); test: ELISA, virus heated 100 C 10 min, coated at 32 ng/well
[2] = target: T1, SARS-HCoV spike protein; test: ELISA, OD on native virus against OD on heat-denatured virus
[3] = target: T1, SARS-HCoV spike protein; test: ELISA, native gradient purified virus coated at 32 ng/well

| Binder | ELISA OD 405 nm, Denatured Lysate [1] [OD 405 nm] | O.D. Reduction, Fold [2] [fold] | O.D. Reduction, Percent [2] [%] | ELISA OD 405 nm, Viral Lysate (native) [3] [OD 405 nm] |
| --- | --- | --- | --- | --- |
| B1 | 0.501 | 3.6 | 72 | 1.81 |
| B2 | 0.6 | 2.7 | 62 | 1.6 |
| B3 | 0.497 | 2.8 | 29 | 1.41 |
| B4 | 0.253 | 6 | 83 | 1.5 |
